Test results: patent publication US20230391860A1 (CANON MEDICAL SYSTEMS, published 2023)

Columns and labels:
Assay in all cases: ELISA on immobilised peptide, antibody 1 ug/mL
mCRP (19) = target: T1, mCRP (19) (human)
T1 peptide: QTDMSRKAFVC
Source text: (§1) The following materials were used as materials for epitope analysis. [0156] (a) Plate: Immunoplate for ELISA (96 well) manufactured by Nunc [0157] […] (c) Solid-phase buffer: 0.1 M carbonate buffer pH 9.5 (IBL) [0159] (d) Antiserum dilution buffer: 1% BSA, 0.05% Tween-20 (Kanto Chemical Co., Inc.) in PBS [0160] (e) Labeled antibody dilution buffer: 1% BSA, 0.05% Tween-20 in PBS [0161] (f) Washing buffer: 0.05% Tween-20 in 0.1 M PB [0162] (g) Substrate buffer: K₂HPO₄-citrate buffer (pH 5.1) (IBL) [0163] (h) Reaction stop solution: 1 mol/L-H₂SO₄ (Wako Pure Chemical Industries, Ltd.)
(§2) Epitope analysis was performed by the following procedure. [0166] (a) Peptides were immobilized on a plate by standing at 50 ng/well (50 μL/well) for 16 hours at 4° C. […] (b) Solid phase peptides were washed twice with Dulbecco's PBS (D-PBS) (200 μL/well). [0168] (c) Blocking was performed by adding 200 μL of D-PBS containing 0.1% BSA and 0.05% NaN₃ to each well and leaving it at 4° C. overnight. [0169] (d) Each well was washed twice with the washing buffer. [0170] (e) The antibody was diluted to 1 μg/mL with the dilution buffer and the diluted solution was added to each well (50 μL/well) and left at 37° C. for 30 minutes. [0171] (f) Each well was washed four or more times with the washing buffer. [0172] (g) Anti-mouse IgG (γ-specific)-HRP, a labeled antibody, was added to each well (50 μL/well) and left at 37° C. for 30 minutes. [0173] (h) Each well was washed four or more times with the washing buffer. [0174] (i) A chromogenic reaction was started by adding a substrate solution (400 μg/mL) to each well (100 μL/well), and the reaction was allowed to proceed for 15 minutes at room temperature in the dark. [0175] (j) After 15 minutes, the reaction was stopped by addition of 1 mol/L sulfuric acid (100 μL/well), and absorbance (490 nm) was measured.

mCRP (29) = target: T2, mCRP (29) (human)
T2 peptide: FPKESDTSYVC
Source text: as §1, §2

mCRP (39) = target: T3, mCRP (39) (human)
T3 peptide: SLKAPLTKPLC
Source text: as §1, §2

mCRP (49) = target: T4, mCRP (49) (human)
T4 peptide: KAFTVCLHFYC
Source text: as §1, §2

mCRP (59) = target: T5, mCRP (59) (human)
T5 peptide: TELSSTRGYSC
Source text: as §1, §2

mCRP (69) = target: T6, mCRP (69) (human)
T6 peptide: IFSYATKRQDC
Source text: as §1, §2

mCRP (79) = target: T7, mCRP (79) (human)
T7 peptide: NEILIFWSKDC
Source text: as §1, §2

mCRP (89) = target: T8, mCRP (89) (human)
T8 peptide: IGYSFTVGGSC
Source text: as §1, §2

mCRP (99) = target: T9, mCRP (99) (human)
T9 peptide: EILFEVPEVTC
Source text: as §1, §2

mCRP (109) = target: T10, mCRP (109) (human)
T10 peptide: VAPVHICTSWC
Source text: as §1, §2

mCRP (119) = target: T11, mCRP (119) (human)
T11 peptide: ESASGIVEFWC
Source text: as §1, §2

mCRP (129) = target: T12, mCRP (129) (human)
T12 peptide: VDGKPRVRKSC
Source text: as §1, §2

mCRP (139) = target: T13, mCRP (139) (human)
T13 peptide: LKKGYTVGAEC
Source text: as §1, §2

mCRP (149) = target: T14, mCRP (149) (human)
T14 peptide: ASIILGQEQDC
Source text: as §1, §2

mCRP (159) = target: T15, mCRP (159) (human)
T15 peptide: SFGGNFEGSQC
Source text: as §1, §2

mCRP (169) = target: T16, mCRP (169) (human)
T16 peptide: SLVGDIGNVNC
Source text: as §1, §2

mCRP (179) = target: T17, mCRP (179) (human)
T17 peptide: MWDFVLSPDEC
Source text: as §1, §2

mCRP (189) = target: T18, mCRP (189) (human)
T18 peptide: INTIYLGGPFC
Source text: as §1, §2

mCRP (199) = target: T19, mCRP (199) (human)
T19 peptide: SPNVLNWRALC
Source text: as §1, §2

mCRP (209) = target: T20, mCRP (209) (human)
T20 peptide: KYEVQGEVFTKPQLWPC
Source text: as §1, §2

mCRP (31-60) = target: T21, mCRP (31-60) (human)
T21 peptide: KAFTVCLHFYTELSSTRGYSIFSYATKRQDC

mCRP (61-90) = target: T22, mCRP (61-90) (human)
T22 peptide: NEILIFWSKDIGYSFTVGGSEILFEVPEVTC

mCRP (121-150) = target: T23, mCRP (121-150) (human)
T23 peptide: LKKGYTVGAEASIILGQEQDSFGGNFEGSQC

mCRP (151-180) = target: T24, mCRP (151-180) (human)
T24 peptide: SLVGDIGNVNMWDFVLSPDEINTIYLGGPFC

mCRP (181-206) = target: T25, mCRP (181-206) (human)
T25 peptide: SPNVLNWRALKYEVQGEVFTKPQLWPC

B1: human denatured CRP-specific antibody produced from hybridoma mCRP-3C (antibody, mouse IgG2b, V domains shown)
VH: QVQLQQSGAELVRPGASVKLSCKALDYTFTDYEMHWVKQTPVHGLEWIGAIHPGRGGTAYNQKFKGKATLTADKSSSTAYMELSSLTSEDSGVYYCTSYHGGYWGQGTTLTVSS
VL: DVVMTQTPLSLPVSLGDQASISCRSSQSLVHSNENTYLLWYLQKPGQSPKLLIYKVSNRFSGVPDRFSGSGSGTDFTLKISRVEAEDLGVYFCSQTTHVPWTFGGGTKLEIKR
notes: Mouse IgG2b, kappa; also called 3C antibody
absorbance (490 nm) (mCRP (19)): 0.004
absorbance (490 nm) (mCRP (29)): -0.001
absorbance (490 nm) (mCRP (39)): 0.001
absorbance (490 nm) (mCRP (49)): 0
absorbance (490 nm) (mCRP (59)): 0.001
absorbance (490 nm) (mCRP (69)): 0.002
absorbance (490 nm) (mCRP (79)): 0
absorbance (490 nm) (mCRP (89)): 0
absorbance (490 nm) (mCRP (99)): 1.58
absorbance (490 nm) (mCRP (109)): -0.001
absorbance (490 nm) (mCRP (119)): 0.005
absorbance (490 nm) (mCRP (129)): 0.002
absorbance (490 nm) (mCRP (139)): 0.002
absorbance (490 nm) (mCRP (149)): 0.001
absorbance (490 nm) (mCRP (159)): 0.002
absorbance (490 nm) (mCRP (169)): 0.001
absorbance (490 nm) (mCRP (179)): 0.003
absorbance (490 nm) (mCRP (189)): 0.007
absorbance (490 nm) (mCRP (199)): 0.006
absorbance (490 nm) (mCRP (209)): 0
absorbance (490 nm) (mCRP (31-60)): 0.03
absorbance (490 nm) (mCRP (61-90)): 1.98
absorbance (490 nm) (mCRP (121-150)): 0.017
absorbance (490 nm) (mCRP (151-180)): 0.108
absorbance (490 nm) (mCRP (181-206)): 0.006
